The source of these data is US12440565.

The experiment addresses CD40 on the surface of mature dendritic cells (mDC) (human) (UniProt P25942). In words: cell-based or functional assay.

Chain of CD40 on the surface of mature dendritic cells (mDC) (human) (P25942 21-277): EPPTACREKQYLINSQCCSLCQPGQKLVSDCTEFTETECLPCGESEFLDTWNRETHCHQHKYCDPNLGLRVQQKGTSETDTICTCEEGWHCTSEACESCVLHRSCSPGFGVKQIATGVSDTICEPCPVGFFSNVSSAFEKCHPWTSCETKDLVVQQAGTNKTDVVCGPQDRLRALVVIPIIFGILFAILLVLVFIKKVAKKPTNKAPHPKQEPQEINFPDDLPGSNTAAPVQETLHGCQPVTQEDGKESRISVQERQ

Substance “CD40L recombinant protein (from UniProt P29965 113-261) (ligand)” came in with a CD83+ (%) of mDC, agonist at 2 µg/mL (control group 81.00) of 88.2% and an IL-12p70 (pg/mL), agonist at 2 µg/mL (control group 50.0) of 874 pg/mL.
